The supplement of paper PMC9112550, “Optimization of the antimicrobial peptide Bac7 by deep mutational scanning” (BMC Biology, 2022)

Test system: Escherichia coli TOP10
Assay: shrunken log2 fold change of peptide-encoding DNA abundance (4.5 h post-induction vs induction); higher = less antimicrobial activity (less host growth inhibition)
Details: time post-induction: 4.5 h; library: site-saturation at positions 5, 18, 19, 20
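Note: peptides expressed intracellularly from a pBAD plasmid library in pooled LB shake-flask culture, induced with 0.3% L-arabinose, DNA abundance read by NGS, three biological replicates, DESeq2 with apeglm shrinkage.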

| Sequence | shrunken log2 fold change |
| --- | --- |
| RRIRERPPRLPRPRPRPDMYPRP | -0.0361 |
| RRIRLRPPRLPRPRPRPSTEPRP | 0.0451 |
| RRIRPRPPRLPRPRPRPTFTPRP | 0.101 |
| RRIRKRPPRLPRPRPRPCNLPRP | 0.0104 |
| RRIRGRPPRLPRPRPRPNPRPRP | 0.684 |
| RRIRQRPPRLPRPRPRPHGLPRP | -0.327 |
| RRIRSRPPRLPRPRPRPMPRPRP | 0.346 |
| RRIRGRPPRLPRPRPRPSSKPRP | 0.0383 |
| RRIRSRPPRLPRPRPRPMTPPRP | 0.13 |
| RRIRSRPPRLPRPRPRPVHAPRP | 0.214 |
| RRIRIRPPRLPRPRPRPVYLPRP | -0.0309 |
| RRIRPRPPRLPRPRPRPEMTPRP | -0.0182 |
| RRIRQRPPRLPRPRPRPYFIPRP | -1.23 |
| RRIRRRPPRLPRPRPRPNRPPRP | 0.198 |
| RRIRARPPRLPRPRPRPYPGPRP | 0.0384 |
| RRIRPRPPRLPRPRPRPIPYPRP | -0.384 |
| RRIRPRPPRLPRPRPRPYCTPRP | 0.164 |
| RRIRQRPPRLPRPRPRPCSHPRP | 0.0226 |
| RRIRGRPPRLPRPRPRPWIGPRP | 0.0233 |
| RRIRARPPRLPRPRPRPNTWPRP | 0.0711 |
| RRIRGRPPRLPRPRPRPSVDPRP | 0.861 |
| RRIRLRPPRLPRPRPRPCNEPRP | -0.0438 |
| RRIRMRPPRLPRPRPRPAMTPRP | 1.35 |
| RRIRTRPPRLPRPRPRPCKTPRP | -0.0173 |
| RRIRARPPRLPRPRPRPEPGPRP | 0.98 |

| Sequence | shrunken log2 fold change |
| --- | --- |
| RRIRLRPPRLPRPRPRPKMPPRP | -0.0152 |
| RRIRKRPPRLPRPRPRPVKFPRP | 0.048 |
| RRIRDRPPRLPRPRPRPCADPRP | 0.167 |
| RRIRLRPPRLPRPRPRPYCMPRP | -1.34 |
| RRIRIRPPRLPRPRPRPANIPRP | -0.383 |
| RRIRVRPPRLPRPRPRPWYSPRP | -0.183 |
| RRIRSRPPRLPRPRPRPPQRPRP | 0.451 |
| RRIRWRPPRLPRPRPRPCALPRP | -0.321 |
| RRIRYRPPRLPRPRPRPAWKPRP | 0.0184 |
| RRIRWRPPRLPRPRPRPPYRPRP | 3.11 |
| RRIRDRPPRLPRPRPRPTDDPRP | -0.0281 |
| RRIRIRPPRLPRPRPRPFPAPRP | -0.299 |
| RRIRTRPPRLPRPRPRPHKSPRP | 0.119 |
| RRIRYRPPRLPRPRPRPDQHPRP | -0.13 |
| RRIRLRPPRLPRPRPRPCECPRP | 0.202 |
| RRIRCRPPRLPRPRPRPKEWPRP | 0.0878 |
| RRIRLRPPRLPRPRPRPNPHPRP | -0.07 |
| RRIRLRPPRLPRPRPRPYCSPRP | -0.00936 |
| RRIRRRPPRLPRPRPRPGPWPRP | 0.523 |
| RRIRMRPPRLPRPRPRPYFQPRP | -0.759 |
| RRIRDRPPRLPRPRPRPAFQPRP | 0.201 |
| RRIRMRPPRLPRPRPRPFQYPRP | 0.00421 |
| RRIRRRPPRLPRPRPRPEEQPRP | 0.231 |
| RRIRLRPPRLPRPRPRPNYIPRP | -0.301 |
| RRIRLRPPRLPRPRPRPDRVPRP | -0.0538 |

| Sequence | shrunken log2 fold change |
| --- | --- |
| RRIRGRPPRLPRPRPRPEVPPRP | 0.434 |
| RRIRARPPRLPRPRPRPHFAPRP | 0.733 |
| RRIRTRPPRLPRPRPRPMGQPRP | 0.103 |
| RRIRVRPPRLPRPRPRPSEAPRP | 0.0122 |
| RRIRTRPPRLPRPRPRPQENPRP | -0.165 |
| RRIRYRPPRLPRPRPRPTEHPRP | -0.501 |
| RRIRARPPRLPRPRPRPIFNPRP | 0.0119 |
| RRIRMRPPRLPRPRPRPDNEPRP | 0.379 |
| RRIRARPPRLPRPRPRPARHPRP | 0.424 |
| RRIRLRPPRLPRPRPRPDCSPRP | 0.0574 |
| RRIRHRPPRLPRPRPRPIEWPRP | -0.02 |
| RRIRVRPPRLPRPRPRPQQQPRP | 0.0503 |
| RRIRIRPPRLPRPRPRPAQLPRP | -0.177 |
| RRIRERPPRLPRPRPRPMWNPRP | -0.0278 |
| RRIRTRPPRLPRPRPRPCNMPRP | -0.154 |
| RRIRRRPPRLPRPRPRPHYAPRP | 0.148 |
| RRIRYRPPRLPRPRPRPYQQPRP | -0.0715 |
| RRIRCRPPRLPRPRPRPAQMPRP | 0.224 |
| RRIRYRPPRLPRPRPRPDTMPRP | -0.0156 |
| RRIRSRPPRLPRPRPRPAYWPRP | 0.259 |
| RRIRERPPRLPRPRPRPEVSPRP | 0.0769 |
| RRIRMRPPRLPRPRPRPLTFPRP | -0.291 |
| RRIRLRPPRLPRPRPRPEQYPRP | -0.122 |
| RRIRYRPPRLPRPRPRPLAIPRP | -0.778 |
| RRIRIRPPRLPRPRPRPSCWPRP | -0.322 |

| Sequence | shrunken log2 fold change |
| --- | --- |
| RRIRHRPPRLPRPRPRPNMLPRP | -0.387 |
| RRIRGRPPRLPRPRPRPFPAPRP | 0.757 |
| RRIRQRPPRLPRPRPRPGVVPRP | 0.000417 |
| RRIRARPPRLPRPRPRPRFEPRP | 0.401 |
| RRIRPRPPRLPRPRPRPLIYPRP | -0.457 |
| RRIRIRPPRLPRPRPRPEKPPRP | -0.0144 |
| RRIRSRPPRLPRPRPRPAKTPRP | 0.111 |
| RRIRSRPPRLPRPRPRPKYGPRP | -0.884 |
| RRIRYRPPRLPRPRPRPDPLPRP | -0.0227 |
| RRIRARPPRLPRPRPRPIYTPRP | -0.387 |
| RRIRARPPRLPRPRPRPWFEPRP | -0.0275 |
| RRIRRRPPRLPRPRPRPASCPRP | 0.0969 |
| RRIRTRPPRLPRPRPRPDEAPRP | -0.0661 |
| RRIRMRPPRLPRPRPRPFCKPRP | -0.224 |
| RRIRWRPPRLPRPRPRPDDMPRP | -0.147 |
| RRIRVRPPRLPRPRPRPPAGPRP | 0.522 |
| RRIRQRPPRLPRPRPRPNWVPRP | 0.00521 |
| RRIRPRPPRLPRPRPRPPLKPRP | 0.441 |
| RRIRPRPPRLPRPRPRPNCYPRP | -0.344 |
| RRIRERPPRLPRPRPRPFVKPRP | -0.0102 |
| RRIRFRPPRLPRPRPRPMDNPRP | 0.000389 |
| RRIRARPPRLPRPRPRPPAQPRP | 1.02 |
| RRIRNRPPRLPRPRPRPEIRPRP | 0.126 |
| RRIRPRPPRLPRPRPRPALRPRP | 0.545 |
| RRIRVRPPRLPRPRPRPHYAPRP | -0.0814 |

| Sequence | shrunken log2 fold change |
| --- | --- |
| RRIRMRPPRLPRPRPRPTHLPRP | 0.396 |
| RRIRRRPPRLPRPRPRPHACPRP | 0.192 |
| RRIRTRPPRLPRPRPRPSLMPRP | 0.0356 |
| RRIRIRPPRLPRPRPRPIMFPRP | -0.314 |
| RRIRGRPPRLPRPRPRPYRHPRP | 0.161 |
| RRIRSRPPRLPRPRPRPHKIPRP | -0.48 |
| RRIRARPPRLPRPRPRPADCPRP | 0.203 |
| RRIRMRPPRLPRPRPRPEDCPRP | 0.0737 |
| RRIRTRPPRLPRPRPRPSCDPRP | -0.347 |
| RRIRIRPPRLPRPRPRPYNTPRP | -0.725 |
| RRIRHRPPRLPRPRPRPNWTPRP | -0.0102 |
| RRIRQRPPRLPRPRPRPGHWPRP | 0.0453 |
| RRIRYRPPRLPRPRPRPLIYPRP | -1.24 |
| RRIRPRPPRLPRPRPRPWSVPRP | -0.101 |
| RRIRDRPPRLPRPRPRPWDCPRP | -0.103 |
| RRIRKRPPRLPRPRPRPYRGPRP | -0.231 |
| RRIRFRPPRLPRPRPRPTEDPRP | 0.0193 |
| RRIRRRPPRLPRPRPRPTYQPRP | 0.112 |
| RRIRFRPPRLPRPRPRPFMEPRP | -0.728 |
| RRIRTRPPRLPRPRPRPPYSPRP | -0.135 |
| RRIRLRPPRLPRPRPRPGTEPRP | -0.0405 |
| RRIRKRPPRLPRPRPRPDGLPRP | -0.162 |
| RRIRYRPPRLPRPRPRPYTSPRP | -0.533 |
| RRIRERPPRLPRPRPRPYGYPRP | -0.0695 |
| RRIRARPPRLPRPRPRPKYSPRP | -0.39 |
